Test results reported in patent US20260274983A1 (MODERNATX, published 2026).
Blank lines part the entries; values can stand above or below the binder they belong to.

How the values were obtained:
human BCMA [1] = biological target: T1, human BCMA (human, UniProt Q02223 1-184); assay: FACS binding to RPMI8226 cells, Fc format [upper panel RPMI8226]
T1 construct: whole, on cells; Human is stated only for CHO-HuBCMA; also called HuBCMA; B-cell maturation antigen
T1 sequence (looked up): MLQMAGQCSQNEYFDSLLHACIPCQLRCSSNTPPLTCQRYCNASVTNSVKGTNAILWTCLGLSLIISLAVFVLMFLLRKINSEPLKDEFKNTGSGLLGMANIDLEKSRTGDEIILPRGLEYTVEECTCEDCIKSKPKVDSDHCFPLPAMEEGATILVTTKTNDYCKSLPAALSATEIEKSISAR

CD38 = biological target: T2, CD38 (UniProt P28907 1-300, limits assumed); assay: FACS binding to RPMI8226 cells, VHH-His format
T2 construct: whole, on cells; also called CD38 on RPMI8226 cells; CD38 on H929 cells
T2 sequence (looked up): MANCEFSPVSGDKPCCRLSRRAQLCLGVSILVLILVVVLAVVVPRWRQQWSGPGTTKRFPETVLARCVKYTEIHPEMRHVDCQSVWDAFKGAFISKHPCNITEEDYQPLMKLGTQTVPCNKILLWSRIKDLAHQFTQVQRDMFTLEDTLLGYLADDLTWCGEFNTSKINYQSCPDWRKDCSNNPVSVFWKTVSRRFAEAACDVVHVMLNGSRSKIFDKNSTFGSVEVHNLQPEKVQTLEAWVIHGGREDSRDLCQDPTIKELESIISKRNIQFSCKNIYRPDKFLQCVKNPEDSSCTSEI

human FcRH5 [2] = biological target: T3, human FcRH5 (human, UniProt Q96RD9 16-977); assay: FACS on RPMI8226-huFcRH5 cells, VHH-His
T3 construct: whole, on cells; also called huFcRH5; RPMI8226-huFcRH5
T3 sequence (looked up): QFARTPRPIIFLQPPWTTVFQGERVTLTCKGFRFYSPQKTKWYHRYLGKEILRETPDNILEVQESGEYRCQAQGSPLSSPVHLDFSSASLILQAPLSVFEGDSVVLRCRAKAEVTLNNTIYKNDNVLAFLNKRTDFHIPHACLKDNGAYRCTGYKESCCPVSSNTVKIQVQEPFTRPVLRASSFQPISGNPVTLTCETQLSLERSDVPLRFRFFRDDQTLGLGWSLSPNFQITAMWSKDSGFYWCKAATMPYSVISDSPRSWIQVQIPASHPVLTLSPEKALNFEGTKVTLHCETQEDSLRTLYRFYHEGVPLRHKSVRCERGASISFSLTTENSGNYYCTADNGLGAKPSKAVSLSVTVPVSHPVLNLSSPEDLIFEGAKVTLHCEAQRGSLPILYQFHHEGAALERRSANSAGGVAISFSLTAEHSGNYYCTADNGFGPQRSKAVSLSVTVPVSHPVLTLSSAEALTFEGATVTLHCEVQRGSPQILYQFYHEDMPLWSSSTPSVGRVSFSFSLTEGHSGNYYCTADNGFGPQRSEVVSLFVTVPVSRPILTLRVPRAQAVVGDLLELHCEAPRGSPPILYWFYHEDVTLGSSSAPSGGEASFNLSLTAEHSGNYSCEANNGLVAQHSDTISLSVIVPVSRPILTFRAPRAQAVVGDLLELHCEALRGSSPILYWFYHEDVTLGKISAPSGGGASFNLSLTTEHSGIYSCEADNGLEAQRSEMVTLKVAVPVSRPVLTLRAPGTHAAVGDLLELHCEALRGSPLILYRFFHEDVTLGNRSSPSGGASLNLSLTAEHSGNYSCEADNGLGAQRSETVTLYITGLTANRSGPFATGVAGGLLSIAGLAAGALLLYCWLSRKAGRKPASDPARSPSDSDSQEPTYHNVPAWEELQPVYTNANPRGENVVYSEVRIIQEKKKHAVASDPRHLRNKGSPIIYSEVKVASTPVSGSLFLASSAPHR

human GPRC5D [3] = biological target: T4, human GPRC5D (human, UniProt Q9NZD1 1-345); assay: FACS on H929 cells, VHH-His
T4 construct: whole, on cells; Human is stated only for CHO-HuGPRC5D; also called HuGPRC5D; GPRC5D on CHO-HuGPRC5D cells

human GPRC5D [4] = biological target: T4, human GPRC5D; assay: FACS on CHO-HuGPRC5D cells, VHH-His
human GPRC5D [5] = biological target: T4, human GPRC5D; assay: FACS on CHO-HuGPRC5D cells
human GPRC5D [6] = biological target: T4, human GPRC5D; assay: FACS on H929 cells
[7] = biological target: cynomolgus FcRH5 (cynomolgus); assay: FACS on RPMI8226-cyFcRH5 cells, VHH-His
human FcRH5 [8] = biological target: T3, human FcRH5; assay: FACS binding to RPMI-huFCRH5 (HuFcRH5-RPMI8226) cells, VHH-His format
human BCMA [9] = biological target: T1, human BCMA; assay: FACS on RPMI8226 cells, Fc formatted

T4 sequence (Q9NZD1 whole entry): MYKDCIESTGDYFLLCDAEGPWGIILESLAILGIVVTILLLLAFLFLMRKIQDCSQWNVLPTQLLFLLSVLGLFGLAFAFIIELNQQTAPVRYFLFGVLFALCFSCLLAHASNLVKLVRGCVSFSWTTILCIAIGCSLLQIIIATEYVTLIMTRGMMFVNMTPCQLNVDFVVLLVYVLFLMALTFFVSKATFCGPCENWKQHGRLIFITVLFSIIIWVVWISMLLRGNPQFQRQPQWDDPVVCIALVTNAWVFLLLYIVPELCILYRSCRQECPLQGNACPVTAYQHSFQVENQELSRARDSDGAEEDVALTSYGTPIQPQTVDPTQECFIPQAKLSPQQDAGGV

B1: BCMA-VHH21 (Fc fusion)
chain: QVKLEESGGGLVQAGGSLSLSCKASVRYFSTYAMGWFRQAPGKEREFVAAISWSGGSTYYADSVKGRFTISRDNAKNTVYLEMNSLKPEDTAVYYCAAPYGSSQNLEYDYWGQGTQVTVSS
notes: not shown: Fc of the Fc formatted construct
- binding result (human BCMA [1]): no binding (tested: about 500 nM (log 2.7))

B3: BCMA-VHH24 (Fc fusion)
chain: QVKLEESGGGLVQAGGSLRLSCQVSGRTFASFAMAWFRQAPGKEREFVAGISWSGGFTSYADSVKGRFTISRDNAKHTVYLQMNSLKTEDTAMYYCGEWGGFSLLGQGTQVTVSS
notes: as for B1
- binding result (human BCMA [1]): no binding (tested: about 500 nM (log 2.7))

B4: FcRH5-VHH1 (VHH)
VHH: QVQFVESGGGLVQAGGSLRLSCAASGITVSRNDMGWYRQAPGKQRELVAIMNRVGSTDTADSVKDRFTISRDNTKNTLYLQMNNLKPEDTAVYYCNALNTVITWPWGQGTQVTVSSHHHHHH
- EC50 (human FcRH5 [2]): 7.2 nM

B5: GPRC5D-VHH3 (VHH)
VHH: QVKLVESGGGLVQPGGSLRLSCVGSGIIFSASNLAWYRQALGKQRELVAGVTGGGSINYADSVKGRFTISRDNAKNTIYLQMNSLKPEDTAVYYCNARRSYSHWGQGTRVTVSS
- EC50 (human GPRC5D [3]): 1.65 nM
- EC50 (human GPRC5D [4]): 4.23 nM

B8: BCMA-VHH22 (Fc fusion)
chain: HVQLVDSGGGLVQAGGSLRLSCAASGFTFDDYAMSWVRQAPGKGLEWVSAISWNGGSTYYAESMKGRFTISRDNTKNTLYLQMNSLKPEDSAVYYCVPVSHSDSVCGSPYMDYWGKGTLVTVSS
notes: as for B1
- EC50 (human BCMA [9]): 49.2 nM

B9: GPRC5D-VHH2 (VHH)
VHH: QVQLVESGGGLVQAGGSLRLSCAASGRTASAYVMGWFRQAPGKERDFVAGISGGAYYADSVKGRFTIARDNAKNTVYLQMNSLKPEDTAVYYCAAERGMRRLTESYQYDYWGQGTQVTVSS
- EC50 (human GPRC5D [3]): 0.23 nM
- EC50 (human GPRC5D [4]): 0.68 nM

B12: BCMA-VHH5 (Fc fusion)
chain: QVKLEESGGGLVQAGGSLRLSCAASGRTFSDYTVAWFRQAPGSEREFVAASVWTDGKPYYVDSVRGRFTISRDNAKNTVWLQMDSLQPDDTAVYYCQALTGGSWILDYWGQGTPVTVSS
notes: as for B1
- EC50 (human BCMA [9]): 72.2 nM

The remaining lines, values ahead:

- binding result (CD38): binds
B2: CD38-VHH4 (VHH)
VHH: QVQLVESGGGLVQPGGSLRLSCAASGFSLDYYHIGWFRQAPGKEREGISCISSSDGYTLYADSVKGRFTISRDNAKNTVYLQMNSLKPEDTAVYYCAASPRRLACAGSLYPPLSADFSSWGQGTQVTVSS

- EC50 (human GPRC5D [5]): 19.8 nM
- EC50 (human GPRC5D [6]): 1.17 nM
B6: GPRC5D-VHH3-H9 (VHH)
VHH: QVQLVESGGGLVQPGGSLRLSCAASGIIFSASNLAWYRQAPGKQRELVAGVTGGGSINYADSVKGRFTISRDNAKNTIYLQMNSLRAEDTAVYYCNARRSYSHWGQGTLVTVSS
notes: Humanized variant of GPRC5D-VHH3

- EC50 [7]: 97.2 nM
- binding result (human FcRH5 [8]): no binding (tested: 1000 nM)
B7: FcRH5-VHH3 (VHH)
VHH: QVQLVESGGGSVQAGGSLRLSCVDSGHTLSTYAMGWFRQAPGKEREFVAAIARDGGATYLSGSAQGRATISRDNAKSTVYLQMNNLKPDDTAVYYCAASSMFSTAKRDYSYWGQGTQVTVSSHHHHHH

- EC50 (human GPRC5D [5]): 0.3 nM
- EC50 (human GPRC5D [6]): 0.06 nM
B10: GPRC5D-VHH2-H5 (VHH)
VHH: QVQLVESGGGLVQPGGSLRLSCAASGRTASAYVMGWFRQAPGKEREFVAGISGGAYYADSVKGRFTISRDNSKNTVYLQMNSLRAEDTAVYYCAAERGMRRLTESYQYDYWGQGTLVTVSS
notes: Humanized variant of GPRC5D-VHH2

- EC50 (human GPRC5D [3]): 13.2 nM
- EC50 (human GPRC5D [4]): 2.52 nM
B11: GPRC5D-VHH1 (VHH)
VHH: SVQLVESEGGLVQAGGSLRLSCVASGRTVSSYAMGWFRQAPGKEREFVAAISWSGRSTYYADSMKGRFTISRDNAKNTVYLQMNNLRPEDTAVYYCATSRAVIPGRDWNYYEYSGQGTQVTVSS
